Measured values from publication PMC2199218 (The Journal of Cell Biology, 2002).
“And” between values parts separate entries of the source, which are not always exact repeats. Equal values may be shown once. Each block holds one molecule with its values, some of them ahead of it.

Columns and labels:
[1] = biological target: integrin β1A cytoplasmic domain fused to the Gal4 DNA BD (human); assay: two-hybrid
cross-linking = biological target: the molecule itself; assay: cross-linking

Chain of integrin β1A cytoplasmic domain fused to the Gal4 DNA BD (human) (P05556 21-798): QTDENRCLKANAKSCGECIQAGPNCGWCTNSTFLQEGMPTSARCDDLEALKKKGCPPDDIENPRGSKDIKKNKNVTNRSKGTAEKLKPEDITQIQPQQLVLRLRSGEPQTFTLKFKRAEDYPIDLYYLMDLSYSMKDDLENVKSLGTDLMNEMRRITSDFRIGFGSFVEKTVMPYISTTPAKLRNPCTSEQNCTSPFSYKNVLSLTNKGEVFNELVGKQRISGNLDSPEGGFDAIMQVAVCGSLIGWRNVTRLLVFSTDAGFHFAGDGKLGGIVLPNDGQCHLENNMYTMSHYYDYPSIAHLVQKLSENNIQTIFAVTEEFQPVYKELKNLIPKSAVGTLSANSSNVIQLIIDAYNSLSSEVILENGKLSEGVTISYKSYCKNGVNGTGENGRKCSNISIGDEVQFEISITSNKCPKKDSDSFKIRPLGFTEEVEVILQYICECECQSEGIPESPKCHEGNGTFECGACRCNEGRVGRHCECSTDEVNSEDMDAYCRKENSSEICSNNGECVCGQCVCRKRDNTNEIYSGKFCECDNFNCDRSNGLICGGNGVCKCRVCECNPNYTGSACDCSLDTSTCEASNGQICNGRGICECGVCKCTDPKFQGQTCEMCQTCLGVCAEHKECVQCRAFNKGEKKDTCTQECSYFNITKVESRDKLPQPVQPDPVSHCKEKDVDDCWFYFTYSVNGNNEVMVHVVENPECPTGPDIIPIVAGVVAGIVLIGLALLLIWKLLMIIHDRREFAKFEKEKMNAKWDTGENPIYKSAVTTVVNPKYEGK

fold binding (β-galactosidase activity) against wild-type filamin-B(19–24) [1]: 2 fold and 3 fold
Molecule: filamin-B_(var-1)(19–24), Gal4 AD fusion (domain or fragment)

B1: NH2-terminal HA-tagged FLN-B(19–24) (domain or fragment, human, UniProt O75369-1 2009-2602, looked up)
chain: GRGLSEGRTFEMSDFIVDTRDAGYGGISLAVEGPSKVDIQTEDLEDGTCKVSYFPTVPGVYIVSTKFADEHVPGSPFTVKISGEGRVKESITRTSRAPSVATVGSICDLNLKIPEINSSDMSAHVTSPSGRVTEAEIVPMGKNSHCVRFVPQEMGVHTVSVKYRGQHVTGSPFQFTVGPLGEGGAHKVRAGGPGLERGEAGVPAEFSIWTREAGAGGLSIAVEGPSKAEITFDDHKNGSCGVSYIAQEPGNYEVSIKFNDEHIPESPYLVPVIAPSDDARRLTVMSLQESGLKVNQPASFAIRLNGAKGKIDAKVHSPSGAVEECHVSELEPDKYAVRFIPHENGVHTIDVKFNGSHVVGSPFKVRVGEPGQAGNPALVSAYGTGLEGGTTGIQSEFFINTTRAGPGTLSVTIEGPSKVKMDCQETPEGYKVMYTPMAPGNYLISVKYGGPNHIVGSPFKAKVTGQRLVSPGSANETSSILVESVTRSSTETCYSAIPKASSDASKVTSKGAGLSKAFVGQKSSFLVDCSKAGSNMLLIGVHGPTTPCEEVSMKHVGNQQYNVTYVVKERGDYVLAVKWGEEHIPGSPFHVTVP
stoichiometry N (cross-linking): 2

B2: COOH-terminal GFP-tagged FLN-B(19–24) (domain or fragment, human, UniProt O75369-1 2009-2602, looked up)
chain: B1 chain
stoichiometry N (cross-linking): 2
